Assay results: US20170190781A1

Target: death receptor 3 (DR3) on human PBMCs / T cells (human) (UniProt Q93038)
Experiment: cell-based or functional assay

death receptor 3 (DR3) on human PBMCs / T cells (human), sequence (Q93038 25-417 limits assumed): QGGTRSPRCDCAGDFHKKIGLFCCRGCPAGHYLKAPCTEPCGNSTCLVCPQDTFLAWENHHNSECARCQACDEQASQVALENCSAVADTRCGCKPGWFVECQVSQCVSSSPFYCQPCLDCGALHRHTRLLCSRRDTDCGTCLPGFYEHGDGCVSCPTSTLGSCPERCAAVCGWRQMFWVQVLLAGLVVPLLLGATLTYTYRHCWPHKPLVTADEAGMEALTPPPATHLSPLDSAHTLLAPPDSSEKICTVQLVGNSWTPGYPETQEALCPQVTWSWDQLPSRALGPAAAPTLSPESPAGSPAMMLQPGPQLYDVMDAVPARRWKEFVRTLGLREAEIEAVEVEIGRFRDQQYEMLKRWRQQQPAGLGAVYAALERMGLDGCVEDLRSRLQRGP

Work on “recombinant soluble human Flag-TL1A(EC) (ligand)” yielded an IL-13 production by T cells with anti-CD3/anti-CD28, 1 ug/mL TL1A-flag (FIG. 4) of 1300 pg/mL, an IL-13 production by T cells with anti-CD3/anti-CD28, 1 ug/mL TL1A-flag (FIG. 8) of 1850 pg/mL and a p65 phosphorylation-positive cells (%) in PBMCs, 40 nM TL1A-flag (FIG. 2B) of 55%. It also gave a p65 phosphorylation-positive cells (%) in PBMCs, 40 nM TL1A-flag alone (FIG. 2A) of 45%, a p65 phosphorylation-positive cells (%) in PBMCs, TL1A alone (FIG. 3) of 55% and a p65 phosphorylation-positive cells (%) in PBMCs, TL1A alone (FIG. 5) of 69.5%. For the same substance, the p65 phosphorylation-positive cells (%) in PBMCs, TL1A alone (FIG. 6) was 45% and the p65 phosphorylation-positive cells (%) in PBMCs, TL1A alone (FIG. 7) was 55%.
